What was measured:
[1] = target: T1, Recombinant IL-17A/F heterodimer (human); experiment: SPR (Biacore 3000, 25°C), antibody captured by anti-mouse IgG Fc, cytokine titrated from 25 nM
T1 construct: also called human recombinant IL-17A/F heterodimer; heterodimer A/F
Method: All experiments were performed at 25° C.
Double referenced background subtracted binding curves were analysed using the BIAevaluation software (version 3.2) following standard procedures. Kinetic parameters were determined from the fitting algorithm.

IL-17 B = target: T2, IL-17 B (UniProt Q9UHF5 21-180, limits assumed); experiment: SPR (Biacore 3000), antibody captured by anti-human IgG Fc, cytokine in solution
T2 sequence (looked up): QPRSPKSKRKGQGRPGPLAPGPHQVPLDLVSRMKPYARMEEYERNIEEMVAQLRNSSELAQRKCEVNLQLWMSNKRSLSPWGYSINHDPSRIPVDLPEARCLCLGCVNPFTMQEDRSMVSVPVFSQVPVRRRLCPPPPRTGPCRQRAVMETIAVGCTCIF
Method: (§1) BIA (Biamolecular Interaction Analysis) was performed using a Biacore 3000 (Biacore AB). All experiments were performed at 25° C. Affinipure Fc Fragment goat anti-human IgG, Fc fragment specific (Jackson ImmunoResearch) was immobilised on a CM5 Sensor Chip via amine coupling chemistry to a capture level of ≈6000 response units (RUs). HSS-EP buffer (10 mM HEPES pH 7.4, 0.15 M NaCl, 3 mM EDTA, 0.005% Surfactant P20, Biacore AB) was used as the running buffer with a flow rate of 10 μl/min. […] The surface was regenerated by a 30 μL injections of 40 mM HCl, followed by one 5 μL injection of 5 mM NaOH.
(§2) Background subtraction binding curves were double referenced and analysed using the BIAevaluation software (version 3.2) following standard procedures. Kinetic parameters were determined from the fitting algorithm.

IL-17 E = target: T3, IL-17 E (UniProt Q9H293 33-177, limits assumed); experiment: as above
T3 sequence (looked up): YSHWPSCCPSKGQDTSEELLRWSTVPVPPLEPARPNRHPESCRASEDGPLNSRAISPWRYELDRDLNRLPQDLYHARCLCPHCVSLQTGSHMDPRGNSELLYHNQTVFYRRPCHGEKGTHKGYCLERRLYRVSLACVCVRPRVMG
Method: as §1, §2

IL-17 C = target: T4, IL-17 C (UniProt Q9P0M4 19-197, limits assumed); experiment: as above
T4 sequence (looked up): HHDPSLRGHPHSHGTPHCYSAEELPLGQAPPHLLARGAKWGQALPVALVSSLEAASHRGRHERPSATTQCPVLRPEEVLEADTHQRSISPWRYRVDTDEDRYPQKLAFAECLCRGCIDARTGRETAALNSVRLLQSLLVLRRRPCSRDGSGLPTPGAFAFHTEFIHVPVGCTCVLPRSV
Method: as §1, §2

IL-17 D = target: T5, IL-17 D (UniProt Q8TAD2 18-202, limits assumed); experiment: as above
T5 sequence (looked up): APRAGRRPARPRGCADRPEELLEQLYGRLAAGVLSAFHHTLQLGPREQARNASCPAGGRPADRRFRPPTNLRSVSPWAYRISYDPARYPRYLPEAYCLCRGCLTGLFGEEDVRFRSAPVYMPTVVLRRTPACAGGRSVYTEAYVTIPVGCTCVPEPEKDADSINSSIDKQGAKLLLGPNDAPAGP
Method: as §1, §2

T1 sequence (chain, as listed by the source limits assumed): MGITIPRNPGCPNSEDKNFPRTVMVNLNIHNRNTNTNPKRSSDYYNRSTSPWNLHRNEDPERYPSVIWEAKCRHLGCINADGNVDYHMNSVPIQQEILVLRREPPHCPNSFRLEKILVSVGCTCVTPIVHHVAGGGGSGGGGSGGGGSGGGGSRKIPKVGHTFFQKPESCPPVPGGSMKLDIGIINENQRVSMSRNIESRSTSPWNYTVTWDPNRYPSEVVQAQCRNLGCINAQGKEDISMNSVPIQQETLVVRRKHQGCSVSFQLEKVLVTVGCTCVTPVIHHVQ

Binder	Kd [1] [nM]	binding result (IL-17 B)	binding result (IL-17 E)	binding result (IL-17 C)	binding result (IL-17 D)
Antibody CA028-0496 (murine IgG1 constant regions) (antibody, V domains shown, not shown: murine IgG1 heavy chain constant region; murine light chain constant region) VH: EVQLVESGGGLVQPGGSLRLSCAASGFTFSDYNMAWVRQAPGKGLEWVATITYEGRNTYYRDSVKGRFTISRDNAKNSLYLQMNSLRAEDTAVYYCASPPQYYEGSIYRLWFAHWGQGTLVTVSS VL: AIQLTQSPSSLSASVGDRVTITCRADESVTTLMHWYQQKPGKAPKLLIYLVSNRESGVPSRFSGSGSGTDFTLTISSLQPEDFATYYCQQTWSDPWTFGQGTKVEIKR	0.116				
Antibody CA028-0496 (human IgG4 constant regions) (antibody, V domains shown, human gamma-4 constant region with the hinge mutation S241P and human C-kappa (Km3), made in CHO cells) VH: EVQLVESGGGLVQPGGSLRLSCAASGFTFSDYNMAWVRQAPGKGLEWVATITYEGRNTYYRDSVKGRFTISRDNAKNSLYLQMNSLRAEDTAVYYCASPPQYYEGSIYRLWFAHWGQGTLVTVSS VL: AIQLTQSPSSLSASVGDRVTITCRADESVTTLMHWYQQKPGKAPKLLIYLVSNRESGVPSRFSGSGSGTDFTLTISSLQPEDFATYYCQQTWSDPWTFGQGTKVEIKR		no binding (tested: doubling dilutions from 50 nM to sub nM)	no binding (tested: doubling dilutions from 50 nM to sub nM)	no binding (tested: doubling dilutions from 50 nM to sub nM)	no binding (tested: doubling dilutions from 50 nM to sub nM)

Reference: patent US20100266609A1 (UCB, published 2010)
